We go through 14 molecules from patent publication US20180362629A1 (ZOETIS BELGIUM S A, published 2018).

Experiment [1] addresses T1, recombinant canine β NGF (canine, UniProt Q29074 110-229 (pig entry)).
T1 chain: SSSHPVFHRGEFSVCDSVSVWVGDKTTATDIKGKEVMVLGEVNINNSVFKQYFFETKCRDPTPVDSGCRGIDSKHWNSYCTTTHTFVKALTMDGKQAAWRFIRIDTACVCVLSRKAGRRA
The experiment can be described thus: cell-based or functional assay.

In experiment [2] the target is T2, recombinant canine β NGF (canine, UniProt Q29074 110-229 (pig entry)).
T2 chain: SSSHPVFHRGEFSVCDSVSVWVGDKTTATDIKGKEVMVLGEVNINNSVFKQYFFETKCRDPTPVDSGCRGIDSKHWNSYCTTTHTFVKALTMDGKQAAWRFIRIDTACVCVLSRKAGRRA
In words: cell-based or functional assay.

The target in experiment [3] is T2, recombinant canine β NGF. In words: SPR (Biacore T100), antibody captured on goat anti-canine IgG, canine NGF injected; Expt 1. As for the experimental part:
(§1) Purified mouse/canine chimeric antibodies and caninized antibodies were analyzed for affinity to canine NGF using a Biacore T100 instrument. Goat anti Canine IgG (Southern Biotech) was immobilized at 5000-10000 RU on a CM5 chip using an amine coupling procedure according to the manufacturer's instructions (Biacore). […] The association rate was monitored for 5 min and the dissociation rate was monitored for 10-20 min. The chip surface was regenerated using 50-75 ul 10 mM glycine pH 1.5 at a flow rate of 50-100 ul/min. Data was analyzed using Biaevaluation T100 software version 2.0.2, software, GE Healthcare Life Sciences (Piscataway, N.J.). Overall affinity parameters established for mouse/canine chimeric antibodies is summarized in Table 22 and for caninized antibodies in Table 23. […] The overall KDs of the mouse/canine anti-NGF mAbs range from about 1300 pM to 1.6 pM. […] The overall KDs of the caninized anti-NGF mAbs range from about 42 pM to 1.2 pM.
On the technique in general: SPR reads the build-up and loss of mass on a sensor chip optically.

For experiment [4], the target named is T2, recombinant canine β NGF. The experiment can be described thus: SPR (Biacore T100), antibody captured on goat anti-canine IgG, canine NGF injected; Expt 2. As for the experimental part:
as §1

Experiment [5] deals with T2, recombinant canine β NGF. The experiment can be described thus: SPR (Biacore T100), antibody captured on goat anti-canine IgG, canine NGF injected; Average. How it is done:
as §1

B1: PR-1254973 (antibody, mouse IgG2b, V domains shown)
VH: QVQLQQPGAELVKPGASVKLSCKASGYTFTNYWMHWVKQRPGQGLEWIGRIDPYGGGTKHNEKFKRKATVTADKSSSTAYILLSSLTSEDSAVYYCTRSGYDYYFDVWGTGTTVTVSS
VL: DIQMTQSPASLSASVGETVTVTCRASENIYSFLAWHQQKQGKSPQLLVYNANTLAEGVPSRFSGSGSGTQFSLKINSLQPEDFGSYYCQHHFGTPFTFGSGTKLEIKR
With B1, in the experiment with recombinant canine β NGF [1], the “PathHunter IC50 (441 pM canine NGF)” value is under 1 nM and the “SureFire cellular pERK IC50 (128 pM canine NGF)” value (shortened to “SureFire cellular pERK IC50”) was under 1 nM.

B2: Mu73 Canine IgG1/k Chimera (antibody, V domains shown)
VH: QVQLQQPGAELVKPGASVKLSCKASGYTFTNYWMHWVKQRPGQGLEWIGRIDPYGGGTKHNEKFKRKATVTADKSSSTAYILLSSLTSEDSAVYYCTRSGYDYYFDVWGTGTTVTVSS
VL: DIQMTQSPASLSASVGETVTVTCRASENIYSFLAWHQQKQGKSPQLLVYNANTLAEGVPSRFSGSGSGTQFSLKINSLQPEDFGSYYCQHHFGTPFTFGSGTKLEIKR
With B2, in the experiment with recombinant canine β NGF [1], the “TF-1 cell proliferation potency (70 pM canine NGF)” value (“TF-1 cell proliferation potency” for short) is under 50 pM.

B3: 82.4 Canine IgG1/k (antibody, V domains shown)
VH: EVQLQESGPGLVKPSQTLSLTCTVSGGSVTGYNINWIRQRPDRGLEWMGMIWGYGDTDYNSALKSRISITKDNTKSQLFLQLTSTTTEDTAVYYCARDHYGGNDWYFDVWGQGTLVTVSS
VL: DIQMTQTPLSLSASPGESASISCRASQDITNYLNWYRQKPGQSPKLLIYYTSRLHSGVPSRFSGSGSGTDYTLRISRVEDEDAGLYFCQQGKTLPRTFGQGTKLEIKR
notes: The variable/constant junction was not checked; also called PR-1313521; PR-13113521
Regarding B3, the “IC50, canine NGF-induced TF-1 cell proliferation (70 pM canine NGF)” value (from here on “IC50 … (70 pM canine NGF)”) with recombinant canine β NGF [2] stood at 16 pM. Besides, in the experiment with recombinant canine β NGF [3], the Kd – broadly, the constant that tells how readily two partners part at equilibrium – came out at 0.0012 nM; the dissociation rate constant (koff) (usually the rate constant with which the complex falls apart) is 1.1e-05 s⁻¹; the kon (in general, the rate constant with which the complex forms) came to 8.6e+06 M⁻¹ s⁻¹. For the same molecule, in the experiment with recombinant canine β NGF [4], the dissociation constant (Kd) amounted to 0.0015 nM, the off-rate (koff) stood at 1.2e-05 s⁻¹ and the kon amounted to 7.7e+06 M⁻¹ s⁻¹. In the experiment with recombinant canine β NGF [5], the Kd was 0.0014 nM, the koff is 1.2e-05 s⁻¹ and the kon was determined as 8.2e+06 M⁻¹ s⁻¹.

B4: PR-1254981 (antibody, mouse IgG1, V domains shown)
VH: EVQLVESGGGAVKPGGSLTLSCAASGFTFSNHYMYWVRQTPEKRLEWVASISDGGAYTFYPDTVKGRFTISRDNVNNNLYLQMRHLKSEDTAMYYCTREESANNGFAFWGQGTLVTVSA
VL: DVLMTQTPLSLPVSLGDQASISCRSSQSILHSNGNTYLEWYLQKPGQSPNLLIYRVSNRFSGVPDRFSGSGSGTDFTLKISRVEAEDLGVYYCFQGAHVPFTFGSGTKLEIKR
In the case of B4, in the experiment with recombinant canine β NGF [1], the “PathHunter IC50 (441 pM canine NGF)” value is under 1 nM and the “SureFire cellular pERK IC50” value was under 1 nM.

B5: Mu81 Canine IgG1/k Chimera (antibody, V domains shown)
VH: EVQLVESGGGAVKPGGSLTLSCAASGFTFSNHYMYWVRQTPEKRLEWVASISDGGAYTFYPDTVKGRFTISRDNVNNNLYLQMRHLKSEDTAMYYCTREESANNGFAFWGQGTLVTVSA
VL: DVLMTQTPLSLPVSLGDQASISCRSSQSILHSNGNTYLEWYLQKPGQSPNLLIYRVSNRFSGVPDRFSGSGSGTDFTLKISRVEAEDLGVYYCFQGAHVPFTFGSGTKLEIKR
For B5, the “TF-1 cell proliferation potency” value with recombinant canine β NGF [1] is under 50 pM.

B6: PR-1254982 (antibody, mouse IgG1, V domains shown)
VH: QVQLKESGPGLVAPSQSLSITCTVSGFSLTGYNINWVRQPPGKGLEWLGMIWGYGDTDYNSALKSRLSISKDNSKSQVFLKMNSLQTDDTARYYCARDHYGGNDWYFDVWGTGTTVTVSS
VL: DIQMTQTTSSLSASLGDRVTITCRASQDITNYLNWYQQKPDGTVKLLIYYTSRLHSGVPSRFSGSGSGTDYSLTISNLDQEDIATYFCQQGKTLPRTFGGGTKLEIKR
Consider B6, for which, in the experiment with recombinant canine β NGF [1], the “PathHunter IC50 (441 pM canine NGF)” value was under 1 nM and the “SureFire cellular pERK IC50” value was under 1 nM.

B7: Mu82 Canine IgG1/k Chimera (antibody, V domains shown)
VH: QVQLKESGPGLVAPSQSLSITCTVSGFSLTGYNINWVRQPPGKGLEWLGMIWGYGDTDYNSALKSRLSISKDNSKSQVFLKMNSLQTDDTARYYCARDHYGGNDWYFDVWGTGTTVTVSS
VL: DIQMTQTTSSLSASLGDRVTITCRASQDITNYLNWYQQKPDGTVKLLIYYTSRLHSGVPSRFSGSGSGTDYSLTISNLDQEDIATYFCQQGKTLPRTFGGGTKLEIKR
In the case of B7, the “TF-1 cell proliferation potency” value with recombinant canine β NGF [1] is under 50 pM.

B8: Mu77 Canine IgG1/k Chimera (antibody, V domains shown)
VH: EVQLQQSGAELVKPGASVKLSCTASGFNIKDTYIYWVKQRPEQGLEWIGRIDPANGNTIYASKFQGKASITADTSSNTAYMQLSSLTSGDTAVYYCAGYGYYAYWGQGTTLTVSS
VL: DVVLTQTPLSLPVNIGDQASISCKSTKSLLNGDGFTYLDWYLQKPGQSPQLLIYLVSNRFSGVPDRFSGSGSGTDFTLKISRVEAEDLGVYYCFESNYLFTFGSGTKLEMKR
On to B8, for which the “TF-1 cell proliferation potency” value with recombinant canine β NGF [1] was under 50 pM.

B9: 73.2 Canine IgG1/k (antibody, V domains shown)
VH: QVQLVQSAAEVKKPGASVKVSCKASGYTFTNYWMHWVQQAPGAGLEWIGRIDPYGGGTKHNEKFKRRATVTADKSTSTAYMELSNLRTEDTAVYYCTRSGYDYYFDVWGQGTLVTVSS
VL: DIQMTQTPLSLSASPGESASITCRASENIYSFLAWHRQKPGQSPQLLVYNANTLAEGVPSRFSGSGSGTQFTLRISRVEDEDAGLYYCQHHFGTPFTFGQGTKLEIKR
notes: The variable/constant junction was not checked; also called PR-1313520; PR-13113520
As for B9, in the experiment with recombinant canine β NGF [2], the “IC50 … (70 pM canine NGF)” value was 0.422 nM. The equilibrium dissociation constant (Kd) is 0.044 nM with recombinant canine β NGF [3], 0.042 nM with recombinant canine β NGF [4] and 0.043 nM with recombinant canine β NGF [5]. The koff with recombinant canine β NGF [3] is 0.00028 s⁻¹; with recombinant canine β NGF [4], 0.00029 s⁻¹; with recombinant canine β NGF [5], 0.00029 s⁻¹. In addition, the kon with recombinant canine β NGF [3] worked out at 6.3e+06 M⁻¹ s⁻¹; with recombinant canine β NGF [4], 6.9e+06 M⁻¹ s⁻¹; with recombinant canine β NGF [5], 6.6e+06 M⁻¹ s⁻¹.

B10: 73.4 Canine IgG1/k (antibody, V domains shown)
VH: EVQLVQSAAEVKKPGASVKVSCKASGYIFINYWMHWVQQAPGAGLEWMGRIDPYGGGTKHNEKFKRRVTLTADKSTSTVYMELSNLRTEDTAVYYCTRSGYDYYFDVWGQGTLVTVSS
VL: DIQMTQTPLSLSASPGESASISCRASENIYSFLAWHRQKPGQSPQLLIYNANTLAEGVPSRFSGSGSGTQFTLRISRVEDEDAGLYYCQHHFGTPFTFGQGTKLEIKR
Regarding B10, in the experiment with recombinant canine β NGF [2], the “IC50 … (70 pM canine NGF)” value is 0 nM.

B11: 77.4 Canine IgG1/k (antibody)
heavy: EVQLVQSAAEVKKPGASVKVSCKASGYIFIDTYIYWVKQAPGAGLEWMGRIDPANGNTIYASKFQGRVTLTADTSTNTVYMELSNLRTEDTAVYYCAGYGYYAYWGQGTLVTVSSASTTAPSVFPLAPSCGSTSGSTVALACLVSGYFPEPVTVSWNSGSLTSGVHTFPSVLQSSGLHSLSSMVTVPSSRWPSETFTCNVVHPASNTKVDKPVFNECRCTDTPPCPVPEPLGGPSVLIFPPKPKDILRITRTPEVTCVVLDLGREDPEVQISWFVDGKEVHTAKTQSREQQFNGTYRVVSVLPIEHQDWLTGKEFKCRVNHIDLPSPIERTISKARGRAHKPSVYVLPPSPKELSSSDTVSITCLIKDFYPPDIDVEWQSNGQQEPERKHRMTPPQLDEDGSYFLYSKLSVDKSRWQQGDPFTCAVMHETLQNHYTDLSLSHSPGK
light: DLVLTQTPRSLSVSPGETASISCKSTKSLLNGDGFTYLDWYRQKPGQSPQLLIYLVSNRFSGVPDRFSGSGSGTDFTLRISRVEADDTGLYYCFESNYLFTFSQGTNLEMKRNDAQPAVYLFQPSPDQLHTGSASVVCLLNSFYPKDINVKWKVDGVIQDTGIQESVTEQDKDSTYSLSSTLTMSSTEYLSHELYSCEITHKSLPSTLIKSFQRSECQRVD
Take B11: the “IC50 … (70 pM canine NGF)” value in the experiment with recombinant canine β NGF [2] worked out at 0 nM.

B12: 77.3 Canine IgG1/k (antibody, V domains shown)
VH: EVQLVQSAAEVKKPGASVKVSCKASGFNIKDTYIYWVKQAPGAGLEWIGRIDPANGNTIYASKFQGKASITADTSTNTAYMELSNLRTEDTAVYYCAGYGYYAYWGQGTLVTVSS
VL: DVVLTQTPRSLSVSPGETASISCKSTKSLLNGDGFTYLDWYRQKPGQSPQLLIYLVSNRFSGVPDRFSGSGSGTDFTLRISRVEADDTGLYYCFESNYLFTFGQGTNLEMKR
B12: the “IC50 … (70 pM canine NGF)” value in the experiment with recombinant canine β NGF [2] was determined as 0.625 nM.

B13: 72.3 Canine IgG1/k (antibody, V domains shown)
VH: EVHLVESGGDLVKPGGSLRLSCVASGFTFSDYYMFWIRQSPGKGLEWVATISDGGSYTYYTDNVKGRFTISRDNANNNLYLQMNSLKAEDTAVYYCAKDWSDSEGFAYWGQGTLVTVSS
VL: DVLMTQTPPSLSVSPREPASISCRSSQSIVQSNGNTYLEWYLQKPGQSPKLLIYKVSNRFSGVPDRFSGSGSGTDFTLRISRVEADDTGVYYCFQGSHVPFTFGAGTKVELKR
For the molecule B13, the “IC50 … (70 pM canine NGF)” value with recombinant canine β NGF [2] worked out at 0 nM.

B14: 72.4 Canine IgG1/k (antibody, V domains shown)
VH: EVHLVESGGDLVKPGGSLRLSCVASGFTFSDYYMFWVRHSPGKGLEWVATISDGGSYTYYTDNVKGRFTISRDNANNTLYLQMNSLRAEDTAVYYCAKDWSDSEGFAYWGQGTLVTVSS
VL: DIVMTQTPPSLSVSPREPASISCRSSQSIVQSNGNTYLEWYLQKPGQSPKLLIYKVSNRFSGVPDRFSGSGSGTDFTLRISRVEADDTGVYYCFQGSHVPFTFGAGTKVELKR
On to B14, for which the “IC50 … (70 pM canine NGF)” value with recombinant canine β NGF [2] was 0 nM.
